In data set [1] the target is FOXP1 LZ-END. The data set can be described thus: SEC; 20 µM protein incubated at 20°C for at least 30 min; Superdex 200 10/300 GL; running buffer 500 mM NaCl, 10 mM HEPES pH 7.5, 2 mM DTT; calibrated with 12-200 kDa markers; oligomer size predicted from the monomeric size.
Data set [2] concerns the target FOXP2 FHD-END. The data set can be described thus: SEC; 20 µM protein incubated at 20°C for at least 30 min; HiLoad 16/60 Superdex 75 prep grade; running buffer 500 mM NaCl, 10 mM HEPES pH 7.5, 2 mM DTT; calibrated with 12-200 kDa markers; oligomer size predicted from the monomeric size.
The target in data set [3] is FOXP2 LZ-END. The data set can be described thus: SEC; 20 µM protein incubated at 20°C for at least 30 min; Superdex 200 10/300 GL; running buffer 500 mM NaCl, 10 mM HEPES pH 7.5, 2 mM DTT; calibrated with 12-200 kDa markers; oligomer size predicted from the monomeric size.
For data set [4], the target named is T1, FOXP1 LZ-END (UniProt Q9H334 332-677).
T1 sequence: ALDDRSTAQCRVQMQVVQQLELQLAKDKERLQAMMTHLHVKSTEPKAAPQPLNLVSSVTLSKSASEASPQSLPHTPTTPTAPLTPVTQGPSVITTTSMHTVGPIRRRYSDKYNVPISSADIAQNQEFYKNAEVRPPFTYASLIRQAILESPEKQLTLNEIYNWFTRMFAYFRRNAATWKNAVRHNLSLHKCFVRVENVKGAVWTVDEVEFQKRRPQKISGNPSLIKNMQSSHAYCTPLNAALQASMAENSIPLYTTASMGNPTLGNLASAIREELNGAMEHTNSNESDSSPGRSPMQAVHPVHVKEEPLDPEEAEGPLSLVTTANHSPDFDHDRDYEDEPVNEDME
The experiment in a line: fluorescence anisotropy; FA: 10 mM HEPES pH 7.5, 100 mM NaCl, 0.02% NaN3, 500 nM DNA, temperature not stated; EMSA: 10 mM HEPES pH 7.5, 1 mM MgCl2, 100 mM KCl, 10% glycerol, 0.1 mg/ml BSA, 500 nM DNA, on ice, gel at 4 C. The following applies: protein: recombinant; (purified by nickel IMAC); chain copies: 4; blunt. A general note: Fluorescence polarisation rises when a labelled molecule tumbles more slowly, as on binding a larger partner.

The target in another data set is T2, FOXP2 FHD (UniProt O15409 504-594).
T2 sequence: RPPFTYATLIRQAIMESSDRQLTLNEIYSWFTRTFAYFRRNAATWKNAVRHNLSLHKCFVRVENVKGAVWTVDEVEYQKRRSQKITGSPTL
Described as above. The following applies: protein: recombinant; (purified by nickel IMAC); blunt.

Another data set has as its target T3, FOXP2 LZ-FHD (UniProt O15409 372-594).
T3 sequence: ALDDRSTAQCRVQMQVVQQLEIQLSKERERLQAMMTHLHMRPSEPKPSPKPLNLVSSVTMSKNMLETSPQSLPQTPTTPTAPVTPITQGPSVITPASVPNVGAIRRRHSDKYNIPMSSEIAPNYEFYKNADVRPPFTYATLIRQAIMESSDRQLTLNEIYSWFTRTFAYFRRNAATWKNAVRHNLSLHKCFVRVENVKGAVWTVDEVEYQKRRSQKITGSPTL
The data set is described as above. The following applies: protein: recombinant; (purified by nickel IMAC); chain copies: 2; blunt.

A further data set addresses T4, FOXP1 LZ-FHD (UniProt Q9H334 332-555).
T4 sequence: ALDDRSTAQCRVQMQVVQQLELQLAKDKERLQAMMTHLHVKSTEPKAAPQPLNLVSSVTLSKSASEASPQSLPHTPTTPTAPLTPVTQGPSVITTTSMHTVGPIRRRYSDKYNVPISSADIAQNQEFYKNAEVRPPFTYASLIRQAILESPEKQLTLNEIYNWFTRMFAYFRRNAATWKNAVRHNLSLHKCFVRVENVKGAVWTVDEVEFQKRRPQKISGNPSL
Described as above. The following applies: protein: recombinant; chain copies: 2; blunt.

For data set [5], the target named is T5, FOXP2 FHD-END (UniProt O15409 504-715).
T5 sequence: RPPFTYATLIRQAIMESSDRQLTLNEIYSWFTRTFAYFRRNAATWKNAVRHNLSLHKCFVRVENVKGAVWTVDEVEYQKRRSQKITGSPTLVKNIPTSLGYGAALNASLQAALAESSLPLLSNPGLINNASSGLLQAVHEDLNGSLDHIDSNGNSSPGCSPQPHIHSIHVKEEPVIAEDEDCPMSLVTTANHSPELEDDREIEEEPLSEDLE
Described as above. The following applies: protein: recombinant; (purified by nickel IMAC); chain copies: 2; blunt.

The target in data set [6] is T6, FOXP2 LZ-END (UniProt O15409 372-715).
T6 sequence: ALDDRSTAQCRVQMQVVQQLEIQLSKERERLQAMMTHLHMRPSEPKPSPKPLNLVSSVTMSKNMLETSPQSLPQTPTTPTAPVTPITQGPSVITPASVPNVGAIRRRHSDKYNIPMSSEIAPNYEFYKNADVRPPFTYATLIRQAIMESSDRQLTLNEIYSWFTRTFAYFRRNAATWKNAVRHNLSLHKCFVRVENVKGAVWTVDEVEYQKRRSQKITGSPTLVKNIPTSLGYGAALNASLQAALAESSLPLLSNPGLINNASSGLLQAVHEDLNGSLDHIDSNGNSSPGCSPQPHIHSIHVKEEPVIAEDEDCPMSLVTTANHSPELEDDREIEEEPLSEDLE
The description is as above. The following applies: protein: recombinant; (purified by nickel IMAC); chain copies: 8; blunt.

Some results are limits rather than exact numbers.

Consider 4 molecules from PMC7789814, “The influence of various regions of the FOXP2 sequence on its structure and DNA-binding function”.

Usually stoichiometry N stands for the number of molecules, sites or subunits per partner or assembly. By Kd is commonly meant the equilibrium constant for the complex coming apart.

Take FOXP1 LZ-END (domain or fragment): in the data set with FOXP1 LZ-END [1], the percent of the species in the larger oligomer was 60% and the stoichiometry N is 4.

Regarding FOXP2 FHD-END (domain or fragment), the stoichiometry N in the data set with FOXP2 FHD-END [2] was 2.

Take FOXP2 LZ-END (domain or fragment): in the data set with FOXP2 LZ-END [3], the percent of the species in the larger oligomer is 70% and the stoichiometry N is under 8.

B1: FOXP2 cognate DNA, ROX-labelled (dsDNA)
DNA 1: TTAGGTGTTTACTTTCATAG
DNA 2: CTATGAAAGTAAACACCTAA
In the case of B1, the Kd with FOXP1 LZ-END [4] came to 1280 ± 70.4 nM; with FOXP2 FHD it was 1746 ± 15.9 nM; with FOXP2 LZ-FHD, 347 ± 55.4 nM; with FOXP1 LZ-FHD, 766 ± 12.1 nM; with FOXP2 FHD-END [5], 1900 ± 25.1 nM; in the data set with FOXP2 LZ-END [6], 326 ± 73.2 nM.
